This note sets out measurements from PMC4186839, “Streptomyces coelicolor SCO4226 Is a Nickel Binding Protein” (PLoS ONE, 2014).

Broadly, the stoichiometry N is the number of molecules, sites or subunits per partner or assembly.

This series deals with the molecule itself. Briefly: crystal structure; Se-Met labelled apo-SCO4226 crystals (1.30 Å) and the same crystals soaked about 1 hr in 0.8 M sodium citrate pH 6.5 with 0.8 M NiSO4 (Ni-SCO4226, 2.04 Å); space group P21; one dimer in each asymmetric unit.

B1: SCO4226 (natural protein, Streptomyces coelicolor A3(2), UniProt Q9FCE4 1-82, looked up)
chain: MAHFMDVHRGMHGITSDQLHQAHQADLAVEKDENVHFEQAWADPASGTIYCLSEGPSAEAVQRVHERAGHKADEIHEVPLSA
modifications: seleno-methionine in place of methionine (Se-Met substituted protein)
notes: SCO4226, 82-residue hypothetical protein encoded by the open reading frame SCO4226 of Streptomyces coelicolor A3(2); residues up to Ala82 (C-terminal carboxylate) are seen in the structure; No tag is named here; also called apo-SCO4226; Se-apo-SCO4226; source: E. coli B834 (DE3), Se-Met labelled, purified (nickel-chelating Sepharose, Superdex 75 gel filtration)
Turning to B1, the “stoichiometry N” value came out at 2.
